Laboratory results as given in PMC12215075, “Cryo-EM structures of the E. coli Ton and Tol motor complexes” (Nature Communications, 2025).

B1: E. coli ExbB (natural protein)
chain: MGNNLMQTDLSVWGMYQHADIVVKCVMIGLILASVVTWAIFFSKSVEFFNQKRRLKREQQLLAEARSLNQANDIAADFGSKSLSLHLLNEAQNELELSEGSDDNEGIKERTSFRLERRVAAVGRQMGRGNGYLATIGAISPFVGLFGTVWGIMNSFIGIAQTQTTNLAVVAPGIAEALLATAIGLVAAIPAVVIYNVFARQIGGFKAMLGDVAAQVLLLQSRDLDLEASAAAHPVRVAQKLRAG
notes: ExbB, E. coli; also called EcExbB; ExbBA

Columns and labels:
[1] = biological target: the molecule itself; assay: cryo-EM structure; TEV-digested TolATEVQR complex, co-expressed and co-purified, in LMNG (Hepes/NaOH 30 mM pH7.5 NaCl 150 mM EDTA 1 mM LMNG 0.002%), second SEC peak; 300 keV; two 3D classes (TolATEVQR-I 2.94 A, TolATEVQR-II 3.18 A)
[2] = biological target: B1; assay: cryo-EM structure; TonB-ExbBD complex, co-expressed and co-purified, in amphipol PMAL-C12 (Tris 30 mM pH8.0 NaCl 170 mM EDTA 1 mM); 300 keV; consensus map 2.8 A and two further classes at 3.2 A; settings: both partners purified
[3] = biological target: the molecule itself; assay: as above

Binder	stoichiometry N [3]	also measured
E. coli TolQ (natural protein, UniProt P0ABU9 1-230, looked up, TolQ, E. coli; residues 2-225 built in the structure; also called EcTolQ; TolQA) MTDMNILDLFLKASLLVKLIMLILIGFSIASWAIIIQRTRILNAAAREAEAFEDKFWSGIELSRLYQESQGKRDNLTGSEQIFYSGFKEFVRLHRANSHAPEAVVEGASRAMRISMNRELENLETHIPFLGTVGSISPYIGLFGTVWGIMHAFIALGAVKQATLQMVAPGIAEALIATAIGLFAAIPAVMAYNRLNQRVNKLELNYDNFMEEFTAILHRQAFTVSESNKG		stoichiometry N [1]: 5
E. coli TonB with C-terminal TEV site and streptag-II (natural protein, TonB, E. coli; only the transmembrane helix (residues 10 to 32) was built, the periplasmic domain is not visible; also called EcTonB; TonBF) MTLDLPRRFPWPTLLSVCIHGAVVAGLLYTSVHQVIELPAPAQPISVTMVTPADLEPPQAVQPPPEPVVEPEPEPEPIPEPPKEAPVVIEKPKPKPKPKPKPVKKVQEQPKRDVKPVESRPASPFENTAPARLTSSTATAATSKPVTSVASGPRALSRNQPQYPARAQALRIEGQVKVKFDVTPDGRVDNVQILSAKPANMFEREVKNAMRRWRYEPGKPGSGIVVNILFKINGTTEIQ		stoichiometry N [2]: 1 TonB per five ExbB
E. coli ExbD with C-terminal TEV site and 10his-tag (natural protein, ExbD, E. coli; model built from Asp11 through the transmembrane helix (21-42), periplasmic domain not visible; No TEV digestion is described in the purification of TonB-ExbBD, so the tag was probably still on the chain; also called EcExbD; ExbDY) MAMHLNENLDDNGEMHDINVTPFIDVMLVLLIIFMVAAPLATVDVKVNLPASTSTPQPRPEKPVYLSVKADNSMFIGNDPVTDETMITALNALTEGKKDTTIFFRADKTVDYETLMKVMDTLHQAGYLKIGLVGEETAKAK	2	
B1	5	
